Test results from the DeepSol protein solubility set.

test: soluble on expression in E. coli; label from the status in PepcDB or PDB records

Row | Sequence | soluble on expression in E. coli
1 | GMSEAPHLTFDLDTPGVSTGHLVVPKGADCEALSLPVFSCNRGEGPSLLITGGNHGNELQGPILARRLVKWLPEAQRCGRIIIVPEINPLAVQAWTRNTPIDGKNLNRVFPGRSDGSVSERIADAISRLLLPVVDTVLDLHSFGPTWDCAPSIISHPIADIDQMTKTVSISKAFKLPVTLLWEHNETDGMFDTLVHRQGKTFICTEFGGGVVSAEALTIYEAGVRNGLIALGLVKGKAEYPTFRQQKTGQTLETTSSDQLKSPSPGIFEPRCSVMDEVEQGDVVGVLHPMGSLSAASIDIRAQSKSTVFAIRSAMYVQGNEEVAILARPLAR | soluble
2 | MSPHYLRQVKESSGSRLIQQRLLHQQQPLHPEWAALAKKQLKGKNPEDLIWHTPEGISIKPLYSKRDTMDLPEELPGVKPFTRGPYPTMYTFRPWTIRQYAGFSTVEESNKFYKDNIKAGQQGLSVAFDLATHRGYDSDNPRVRGDVGMAGVAIDTVEDTKILFDGIPLEKMSVSMTMNGAVIPVLANFIVTGEEQGVPKEKLTGTIQNDILKEFMVRNTYIFPPEPSMKIIADIFEYTAKHMPKFNSISISGYHMQEAGADAILELAYTLADGLEYSRTGLQAGLTIDEFAPRLSFFWGIGMNFYMEIAKMRAGRRLWAHLIEKMFQPKNSKSLLLRAHCQTSGWSLTEQDPYNNIVRTAIEAMAAVFGGTQSLHTNSFDEALGLPTVKSARIARNTQIIIQEESGIPKVADPWGGSYMMECLTNDVYDAALKLINEIEEMGGMAKAVAEGIPKLRIEECAARRQARIDSGSEVIVGVNKYQLEKEDTVEVLAIDNTSVRNRQIEKLKKIKSSRDQALAERCLAALTECAASGDGNILALAVDASRARCTVGEITDALKKVFGEHKANDRMVSGAYRQEFGESKEITSAIKRVHKFMEREGRRPRLLVAKMGQDGHDRGAKVIATGFADLGFDVDIGPLFQTPREVAQQAVDADVHAVGVSTLAAGHKTLVPELIKELNSLGRPDILVMCGGVIPPQDYEFLFEVGVSNVFGPGTRIPKAAVQVLDDIEKCLEKKQQSVAENLYFQSHHHHHHDYKDDDDK | soluble
3 | MFVIGIPTLNEADNISRLVKQIDEYAVNLGKEIIIINSDSKSTDGTPQIFLETKTYNTKVSIVSEAKGKGYNVRNIFEYAINHVPNFSGLILIDGDVVSMKKMWLEKMFIAIESGNDLIIPNYARKSFEGNATNHFIYPMLVKIFKRDMPYQCISGDFGFSRGLIKDLTLKCNWHKYTLGYGIDIFLTLTAILKSYKIKEIDLQSKIHKKSFEKIEKIFLEVSQSFFETINDNSLNQDKLRLNINFESHSRQFIKSSDILSSNDIENLKLRALFLLQEEKQYLHGLSEVEWDGILSNTINNIYRYSSEEHSLYLLPLYLLRVYNYLKYN | not soluble
4 | MIPTERRQIILDMVAEKGIVSIAELTERMHVSHMTIRRDLQKLEQQGAVIQVSGGVQSSTRVAHEPSHQIKTELATPQKAAIGKLAASLVQPESCIYLDAGTTTLAIARQLVTMNKLTVVTNDFVIADYLMDNSNCTIIHTGGAVCRENRSCVGEAAATLLRGLMIDQAFISASSWSVRGISTPAEDKVTVKRAVASASRQKILVCDATKYGQVATWLALPLAEFNQIVTDDGLPESAIRALAKVDISLLMAKQLEHHHHHH | soluble
5 | MIVMTQVRLSELVAPSFYEIHNDIKHNRYTHYWLKGGRGSTKSSFVSIEIILGVMKDPNANAVALRKVKETIKDSVFEQLVWAIEKLKVTEYWEIKHNPMELTYLPTGQKILFRGADKPRKIKSIKVSRGYVKFIWYEEVDEFLGMEEIRIINQSLMRGGEQFVVFYTYNPPNRVNAWVNEEILIDRPDRKVHHSTYLTVPRDWLGEQFFIEAEHLKKVNEKAYRHEYLGEVTGTGGEVFTNVKARKINDEEIKAFDRIKRGLDFGYAVDPAAYIVCHFDKTRRRLYIFHEIFQVGLSNRKLAELIKKENKSNKLVVADSAEPKSIAELRGYGINIRGAKKGPDSVEYGIKFLQDLEEIIIDPERCPNTLREFVNYELEKDKDGNFKAEFPDKNNHTIDAVRYALEDDMRTGGLSILK | soluble
6 | MGSDKIHHHHHHMNALRLEDLISVEMLQKVQDNFSAAVGIAMIIVDERGTPVTRPSNFSAFCQTIRTSAARRDQCFQCDDDGGRRAMAMGEPSIYQCHCGLVDFAAPIIVRDQYLGAVISGQVRLRQGHEVTLEYIAPPDESWRQDAHLIALREKITEIPYVKLRSAAYTLYHLAAYLVEESYSNAVSQELSAKNLKLMEESKRRVELEKSLREAELQALSYQVNPHFLFNVLNTIGRLALKEHAPKTEDMLYAFADMMRYVLKKSRSQIVSLQTEVGHVRNYLHIQKVRMGDRFTFTMDVPAKYDGILCPFMVLHPIVENSINYAIEPHEADGRIEITARDDGLNMILRVVDNGDGVSPELVRAALDGVAEPHGRTSIGLHNVDSRLRHFFGPDYGLTVESPATPGGRHGRRDALSPGLRSLRHLNACAEERRLCTALSLLKTRNSSARRCAPF | not soluble
7 | MQAWFMDDSNEDQRLPHHRNPKELVSLDYLAELGVLYWKLNPENYENDSELSKIREDRGYDYMDLLDLCPEKVSNYEEKLKNFFTEHIHKDEEIRYCLAGSGYFDVRDKDDRWIRIWMQPGDLIVLPAGIYHRFTLDASNYIKLMRLFVGEPVWTPYNRPQEEHPVRKKYIHGLTYKFGETVKAH | soluble
8 | MSGEPELIELRELAPAGRAGKGRTRLERANALRIARGTACNPTRQLVPGRGHRFQPAGPATHTWCDLCGDFIWGVVRKGLQCARLSADCKFTCHYRCRALVCLDCCGPRDLGWEPAVERDTNVDEPVEWETPDLSQAEIEQKIKEYNAQINSNLFMSLNKDGSYTGFIKVQLKLVRPVSVPSSKKPPSLQDARRGPGRGTSVRRRTSFYLPKDAVKHLHVLSRTRAREVIEALLRKFLVVDDPRKFALFERAERHGQVYLRKLLDDEQPLRLRLLAGPSDKALSFVLKENDSGEVNWDAFSMPELHNFLRILQREEEEHLRQILQKYSYCRQKIQEALHACPLGLEHHHHHH | not soluble
9 | MTKVTREEVEHIANLARLQISPEETEEMANTLESILDFAKQNDSADTEGVEPTYHVLDLQNVLREDKAIKGIPQELALKNAKETEDGQFKVPTIMNEEDA | soluble
10 | MSLAEPRYKADIGGGSLKLPESRIIAGLLLEGVTEDQWRHAIEVENVLQRRSPGTAKRQSSLMRNRLETMGPELWQMVRDGSTQVAIQAVFAAAIKHSTLLGDFLDLVVRDQFRMFRPDLPRKMWDQYLEQCRNRDPLMPVWQDSTANKLADCVYRILVEVGYITDSKTYRLKSVRISGEVMSYLRENNEQYVIRCIQVSIEGHHHHHH | soluble
11 | MGSDKIHHHHHHMSEKNQQSADLMARQYFLHLGAHRTGSSSFQLCLHENRAALANAGYGVAFPARDGIRAGQLALRLPQPRHDAEAETRMAETARQHLTQDIAPAPDQKVLLSEENILGSMSHFQQALFYPASAKRLRALRQAMEGPAAAVLLVVRDYGPFFRSCIRKRMEETIVTDFEGAVSAYLAMDRGWLEVLREVRDILEPAKLIVARHEDRPKRVDLLRELAPDLAQVALMQPSTSLNISATDRALSALQARYATGEKLSRKAWRATLAEWRDDATPMGLTEFTPRELRAFSMRYERDLSDIAKEPGLTLI | not soluble
12 | MKIHKTLTPWAAALLLASTAWPALAEVSTVRLAKQFGIGYLPLTLVEELDLLEKHAAASGHEITTEWLRFTGGSGMNEALLSGNLDLAAGGTGPLFTIWARTRENLKIKGVAALASMPLHLMTSNPEVKSLADFSQGDKIALPAVKTSIQAVTLQMASKQAFGPDKATAMDAFTVSMGHPDAQLALTGGQSEVTAHFGSPPFQNLEAKVEGIHKVLDSYDVLGGSHTFTVVWAADKFISENPEITKAFMAALEESMELISTNPEKAAEIWMAAERSPLSREEVVALIRDEQTVWTTTPERTLPYVEFLSESGLIKTSAEDWSEIFFDTMSGKEGS | not soluble
13 | MSSNDSSLMAGIIYYSQEKYFHHVQQAAAVGLEKFSNDPVLKFFKAYGVLKEEHIQDAISDLESIRHHPDVSLCSTMALIYAHKRCEIIDQEAIQELEYSLKEIRKTLSGTALYYAGLFLWLIGRHDKAKEYIDRMLKISRGFREAYVLRGWVDLTSDKPHTAKKAIEYLEQGIQDTKDVLGLMGKAMYFMMQQNYSEALEVVNQITVTSGSFLPALVLKMQLFLARQDWEQTVEMGHRILEKDESNIDACQILTVHELAREGNMTTVSSLKTQKVILETESRRNPS | not soluble
